Source: the DeepSol protein solubility set

Assay: soluble on expression in E. coli; label from the status in PepcDB or PDB records

| Sequence | soluble on expression in E. coli |
| --- | --- |
| MGSSHHHHHHSSGRENLYFQGVRPAVIAATGLYTPPDSVSNAELVEAFNTYVANFNAANKARIEAGEIEPLQPSSSEFIEKASGIKSRYVVAKPGIVDPDVMRPIIPERSNDELSILAEMAVTAAEQAIERWGKPRERIGAVLCACSNMQRAYPAMAIEVQNALGLGGFAFDMNVACSSATFGLKTAADFVGGGSVDAVLMVNPEICSGHLNFRDRDSHFIFGDVATAAIVERADDAQGGWSILGTKLKTQFSNNIRNNAGFLNRAWPEGRDKADKLFVQQGRKVFKEVVPLVSEMIIEHAREIGIDPHGLKRMWLHQANINMNEIIGRKVLGRDPTRDENVIILDDYANTSSAGSIIAFHKHQDDMAQGDLGLICSFGAGYSAGTVFVQKR | soluble |
| MGSDKIHHHHHHMDVLTPTPLTYPYEASRPKMALIAEGGGQRGIFTAGVLDAWLDNDFDPFDLFIGTSAGSQNLTSFLSRQKGYAKRLIRGLSRHKRFYQLGRGLVGGNVVDLDWYFDKTTQGSFALDFTAAAKSLGQRELLITATNSRDRQGYFLRPNGDNDHWRELLKASSALPFLYKQGVKLAPWLTASAANQVHTNYDYPQADFYLDGGLAAPLPVREAYRRGARKIVVIRTVNADFHAQSAWVHKLKSWICVSGYCPKTIDYLAQHEQAYEQELAFIANPPDDVEIIQIFADDNLQSKLLGSTDMDLRHDYQTGITAGNAFLHTQKAFYSTHSLHAQPLLESLTIMQSMTA | not soluble |
| MSLKMEDIAISITGYSYSNIKETIPDGVDKEEIAAVYEEIIDEYLQKGIPREIPALINVSGVPGAGKSTFCKKLLAMPENSSAIYIGFDAIMENERLPYIREEVNHAEEAFKRWELSARIAGYELLKRAIENKYLIIFDHSSALSQHIDLFNLLLSEGYEVHFNFIFIPEEEARRRAKNRKRYIPPYYIEERSKTLQYLLPEYKRICTTFKQIEPMRTRLIIARHGNTFRPEETPTRVGAKTDLPLVEEFKGRSIGRYLKEHDMIPDVIYAAPLLRTMQTARLAVQTIGLDSDISPLNAFVEIDYGVDENKTEEEVRLRLGNGNIEKGKKIIEDWDKNAVVPDGWKVDPDQIIHTWLDFAEKTVIPHQTTLLVTSNGIIRFAPYLTGDFEKFAQEHKIKVAPGGLCIFDKNDGDSFWTCSAWNVKPYELYADSEGHHHHHH | soluble |
| YRNSIEGLIEKGIRDEEFIPYYQPIVDSRTQEVVGYEVLLRWQKGHQLVPPSLFISAAEDSGLVVKITNQLIQQVHRDLAQIPAPRWVSINVVADHLEQHHLTHLLEELHWPYSERLKFELTERVPIKAMTQAQEEVFYLLKKGYQFKIDDFGTGYGGFAYLQNLQISSIKIDKMFVDTINTHDVKISVLDSIIASAQGGNIEVIAEGVEHQYQVDYLAERNVFWIQGYFYAKP | not soluble |
| MQARWIGNMMFHVRTDSNHDVLMDTKEEVGGKDAAPRPLELVLTGLMGCTGMDVVSILRKMKVIDQMKDFRIEIEYERTEEHPRIFTKVHLKYIFKFDGEPPKDKVEKAVQLSQEKYCSVSAILKCSSKVTYEIVYEN | not soluble |
| MDWNHYRFRSRWPLPAPAPDVYRALERIEDYPRWWPQVREVTRLDDTSGLLRFRSLLPYDLTATVREQRRDPTEGVLEVAMSGDMEGWARWTVAPRGSASLVRYDQEVVVRKPLLRRLAVPGRPLFRANHRLMMRAGRRGLAAHLAGGRQAVLEHHHHHH | soluble |
| MSKKVAILVDGDFFIRCYKSHLKKQPEDLNPKKLAHHIHTYCLKHINKKNDEELYRIFFYDCKPLKKKAHYPYTQKALDLSKSPTYREREELHEHLISKPCLALRLGYLDEKNARWVIRDQEKEKKLFNRRISIEEFQNDDFIYHAKQKGVDIKIGLDIATLALKKLVQKIVLISGDSDFVPASKLARVEGIIFTLDPMGNHIREDLKEHIDYLTTRLPQFKQQ | soluble |
| MDVAALVSGGVDSSVVVHRLCEEGYKPAIFYIRIGMEDKDGYIDCPAEEDIELTTLIARRYGCPFEVVDLHKEYWERVVSYTVETVRRGLTPNPDMMCNKLIKFGCFEERWGYQFDRIATGHYATTDLLNGKTYLSTAKDPVKDQTDFLAQINFAQISKLMFPIGHLLKSEVRAIANAAGLPSAKRKDSQGICFLGKIDYNDFIERYLGKKEGRIIELETGKVIGRHQGYWFHTIGQRKGLGLSGGPWFVVKKDIKRNIILVSRGYDPDAQYGKTIEMETFDFITEDAYEAGYWNREDATPVTFKIRHTPEFTRGLLYKGEKGYRLESEERIQGIAPGQYCVIYDEDHHLCYGSGMITKGR | not soluble |
| SNAMTQFAFVFPGQGSQSVGMLAEMAANYPIVEETFAEASAALGYDLWALTQQGPAEELNKTWQTQPALLTASVALWRVWQQQGGKMPALMAGHSLGEYSALVCAGVINFADAVRLVEMRGKFMQEAVPEGTGGMSAIIGLDDASIAKACEESAEGQVVSPVNFNSPGQVVIAGHKEAVERAGAACKAAGAKRALPLPVSVPSHCALMKPAADKLAVELAKITFSAPTVPVVNNVDVKCETDAAAIRDALVRQLYNPVQWTKSVEFIAAQGVEHLYEVGPGKVLTGLTKRIVDTLTASALNEPAALSAALTQ | soluble |
| MSLIKLYDNYVFISQEGGESGERLYSKKFREKSVVDVSGLRIGEGLVVAAGPCSVENEAMILDIARSVKAAGADMIRGGAFKPRTSPYSFQGLAEKGIEYLVEAREETGLPIVTEIMNPEYYRYFDRVDMLQVGSRNAQNFDLLRFLGKQKKPVLLKNGMGNTAREWLETAEYILSGGNGNVVLCYRGVRGIENSTRFTMNVGSIIYAKSETHLPICADPSHASGRRDFVESMALASVAAGADMLEIEVHNDPDNALSDSEQQIRPVDLKRIIEKARALKDLLSHEIEGHHHHHH | not soluble |
| MRSQRIVHIVSCHAEGEVGDVIVGGVAAPPGATLWEQSRWIARDQDLRNFVLNEPRGGVFRHANLLVPAKDPRAQMGWIIMEPADTPPMSGSNSLCVATVLLDSGILPMREPLTRLLLEAPGGLIEARAECRDGKAERVEIRNVPSFADRLDAWIEVEGLGSLQVDTAYGGDSFVIADARRLGFALRADEAAELVATGLKITHAANEQLGFRHPTNPDWDHLSFCQLAAPPERRDGVLGANNAVVIRPGKIDRSPCGTGCSARMAVLQAKGQLRVGERFVGRSIIGSEFHCHIESLTELGGRPAILPCLSGRAWITGIHQYLLDPDDPWPQGYRLSDTWPGGHC | not soluble |
| MPADDLQQALNNSQNGDVITLGPGSYFGNFIISNQVTLRSNNKGEAIIDSQGKGHGLWLKNSQITIENLTITNWGHDLTDQNSGIYSHGKIDNNKVPSLTIRNNILIGDGFGIWLNQADKAIISHNRVKGNLTLRSADRGNGIQVANVTNSHVFLNEVSETRDGVYVISSQNNIIEQNTMHHLRYGIHYMYSYDNTVKNNTAYDTRAGYALMSSRRLTITGNKTTNSEDYGFLLNFITQSTFSHNYVKNVWTKPENKVLGRDGKGLFVYNSGYNTVKHNIIDTAEIGIHLTAGSENIKIFGNSFINNPTQVKYVSNKKQEWSKDGRGNYWSNYLGWDMGNDGIGDTIFEPNDGIDKLVWQYPEMKMIMDSPAILILRWVQRQFPVLKPPGVKDSFPLMSAPSLTKNEQAATPLAVTTSTFTKSNSAQSANTTSASLKELEHHHHHH | soluble |
| MGEKEKEFAVIGLGRFGGSICRELAQLGMEVMAIDSDEDKINEFANIASHAVIADSTDEMVLKSLGIRNFDHVVVAIGDNLNSSILTTLILKELGVKNITVKAQNDYHEKVLSKIGADHIVHPERDMGKRIANNIASSNVLDYLELSDEHSIVEIIANKKIDGHSLIELDIRAKFGLNIVAIKRGKEVIVSPRATENIQAGDILIVIGHDDEVDRFKHFLR | not soluble |
| GPQKRCLFVCRHGERMDVVFGKYWLSQCFDAKGRYIRTNLNMPHSLPQRSGGFRDYEKDAPITVFGCMQARLVGEALLESNTVIDHVYCSPSLRCVQTAHNILKGLQQDNHLKIRVEPGLFEWTKWVAGSTLPAWIPPSELAAANLSVDTTYRPHIPVSKLAISESYDTYINRSFQVTKEIISECKSKGNNILIVAHASSLEACTCQLQGLSPQNSKDFVQMVRKIPYLGFCSCEELGETGIWQLTDPPILPLTHGPTGGFNWRETLLQE | soluble |
| MSLVEIVNRPYAKAFEAFATARPEVLCLSADLTSSCEVDGFRDRHPEQFLTLGMAEQNMLSFAGGLAMQGFRPFIHTFSVFLYRRPYDQLINSIAYSNRKVRLMGFLPGITTPGGITHQAIEDIAVLRAVPNMTILETGDATEVETVLEVADSIDGPVYVRILRGEVPRLFSTPFEFNKLRTLSEGDDILVVSSGVCTEEALRATGPLAARGVGIHHLHASTLKPFDKDGLLRAARGKKGIVTLENHTIIGGLGSLVSEILAEEGLGIRLKRLGLNDTFAHGASKPYLMKKYGLDAGALVSAIEELVGKNLAIGEEELVEVRLDHVHSAQKAEALEGHHHHHH | not soluble |
| MSLMTEMQQRAQLHRQIWKIADEVRGAVDGWDFKQYVLGTLFYRFISENFTDYMQAGDSSIDYAAMPDSIITPEIKDDAVKVKGYFIYPGQLFCNIAAEAHQNEELNTKLKEIFTAIESSASGYPSEQDIKGLFDDFDTTSSRLGSTVADKNKRLAAVLKGVAELDFGNFENHHIDLFGDAYEYLISNYAANAGKSGGEFFTPQSVSKLIARLAVHGQEKVNKIYDPACGSGSLLLQAKKQFDEHIIEEGFFGQEINHTTYNLARMNMFLHNVNYNQFHIELGDTLTNPKLKDSKPFDAIVSNPPYSINWIGSDDPTLINDDRFAPAGVLAPKSKADFAFILHALNYLSGRGRAAIVSFPGIFYRGGAEQKIRQYLVEGNYVETVIALAPNLFYGTGIAVNILVLSKHKDNTDIQFIDASGFFKKETNNNVLIEEHIAEIVKLFADKADVPHIAQNAAQQTVKDNGYNLAVSSYVEAEDTREIIDIKQLNAEIGETVAKIERLRREIDEVIAEIEAEGHHHHHH | soluble |
| MGSDKIHHHHHHMLHGTTTKAADALDITQPAVSKILLQLTNKAGFPLFRNHRQRLIPTPEAHMLYAEVRRLFETVRGISQIAKEIRELRSGRLNISALPAFGSTLMPSIIASFTKQYPDVAITLDIRSSSTIIQRAGRNQLDIGVASEVNDETPSVVRRALIATPPVCVMPKGHPLSKLSVVQPDDFDGLNFVSLGVGDPMRKQLDELCEQRGVNRSLKVEAALSHSCINLVANGVGVTVVDRLSAWMAKDLPIEIRDFQPHLDINLSVYRPWGTIASSVADTFIEHLIQSTREYMNVVDRGIKALSEQ | not soluble |
| MGSDKIHHHHHHMSFFNKIILIGRLVRDPEERYTLSGTPVTTFTIAVDRVPRKNAPDDAQTTDFFRIVTFGRLAEFARTYLTKGRLVLVEGEMRMRRWETPTGEKRVSPEVVANVVRFMDRKPAETVSETEEELEIPEEDFSSDTFSEDEPPF | soluble |
| GPGSMSSTQTTSVFFTDVPLFVEERSLRKHFESVGHITDFRLLGPPVGKDFRYGFAEYLDSTSAEEAIARLNGTSFGGRPMKVMSAAATRGRKRQRQQNASHQQQPAPRGGMTFPRGYTDPVLGRDDTSIFECLQGMQQSDAYEAVEQLRVLVLERKNEARKLLENNPALRLAVVMILQHAGRLPFGPLPPEAIQHGGIRVDAPVPAAPAEGEGEKVEPPREQNDEIIEILSKLSEEEVERIVSMTDEDLNRIPDVSQRQQIGVLRERLLELAADLE | soluble |
| MSATGPGIVVIDKPAGMTSHDVVGRCRRIFATRRVGHAGTLDPMATGVLVIGIERATKILGLLTAAPKSYAATIRLGQTTSTEDAEGQVLQSVPAKHLTIEAIDAAMERLRGEIRQVPSSVSAIKVGGRRAYRLARQGRSVQLEARPIRIDRFELLAARRRDQLIDIDVEIDCSSGTYIRALARDLGDALGVGGHVTALRRTRVGRFELDQARSLDDLAERPALSLSLDEACLLMFARRDLTAAEASAAANGRSLPAVGIDGVYAACDADGRVIALLRDEGSRTRSVAVLRPATMHPGGVPRGKLAAALEHHHHHH | soluble |
